Patent US20180028609A1 (UCL BUSINESS, published 2018)

Experiments:
[1] = molecular target: T1, human Leucine-rich alpha-2-glycoprotein 1 (Lrg1) (human, UniProt P02750 36-347, limits assumed); assay: competition ELISA: dilution series of the purified antibody against a fixed concentration of biotinylated mouse 15C4 on recombinant hLRG1; bound biotinylated 15C4 detected with streptavidin-peroxidase and TMB [bottom panel]
T1 construct: In the western blots the native protein of conditioned medium, vitreous and serum was probed; also called human Lrg1; hLrg1
T1 sequence: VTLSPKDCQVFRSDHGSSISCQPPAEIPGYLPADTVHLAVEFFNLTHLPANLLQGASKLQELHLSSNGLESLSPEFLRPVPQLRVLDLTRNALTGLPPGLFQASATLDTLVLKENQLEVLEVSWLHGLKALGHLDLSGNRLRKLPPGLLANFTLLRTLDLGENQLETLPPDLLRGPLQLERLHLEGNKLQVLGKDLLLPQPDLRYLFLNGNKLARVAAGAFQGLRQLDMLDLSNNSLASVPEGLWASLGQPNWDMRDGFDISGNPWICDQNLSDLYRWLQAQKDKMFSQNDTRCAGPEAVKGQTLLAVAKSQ
From the text: Top panel-Analytical size exclusion chromatography showing single peak and no aggregates. SDS-PAGE showing reduced (lane 1) and non-reduced (lane 2) antibody. Bottom panel-Anti-hLRG1 competition ELISA. A dilution series of each purified antibody was competed against a fixed concentration of biotinylated mouse 15C4 for binding to recombinant hLRG1. Bound biotinylated mouse 15C4 was detected using streptavidin-peroxidase and TMB substrate.
The properties of Magacizumab were investigated. Analytical size exclusion chromatography was conducted showing a single peak and no aggregates (FIG. 20). An anti-hLrg1 competition ELISA was carried out. A dilution series of each purified antibody was competed against a fixed concentration of biotinylated mouse 15C4 for binding to recombinant hLrg1. Bound biotinylated mouse 15C4 was detected using streptavidin-peroxidase and TMB substrate. This was an analytical step in which several humanised variants were tested against the chimeric 15C4, in order to identify those that retained the best binding characteristics.

[2] = molecular target: T1, human Leucine-rich alpha-2-glycoprotein …; assay: competition ELISA: plate coated with hLrg1, dilution series of the test antibody premixed with biotinylated mouse 15C4 (0.4 µg/ml); bound biotinylated 15C4 detected with streptavidin-HRP and TMB [top graph]
Method: (§1) The chimeric antibody was expressed transiently in HEK EBNA cells and stably in NS0 mouse myeloma cells, purified and tested for binding to human Lrg1 in a competition ELISA assay. A Nunc Immuno MaxiSorp 96 well flat bottom microtitre plate (Fisher, cat. no. DIS-971-030J) was pre-coated with 0.2 μg/ml hLrg1 (supplied by UCL) overnight in 0.1 N Sodium Carbonate buffer (NaHCO₃) at +4° C. The following day the plate was washed 1× with PBST and blocked with 3% BSA/PBS for 1 hour at room temperature. After washing 3× with PB ST, a three-fold dilution series of chimeric, mouse or control antibodies from 100 μg/ml to 0.13 μg/ml was premixed with a constant concentration of biotinylated mouse 15C4 (0.4 μg/ml, final concentration), added to the plates and incubated for 1.5 hours at room temperature. Following 3×PBST washes, the binding of the biotinylated mAb was detected with streptavidin-HRP (Sigma, cat. no. 55512) and TMB substrate (Invitrogen, cat. no. 00-2023). The reaction was stopped with 3 M HCl, absorbance read at 450 nm on a Dynex Technologies MRX TC II plate reader and the binding curves plotted.

[3] = molecular target: T1, human Leucine-rich alpha-2-glycoprotein …; assay: competition ELISA: plate coated with hLrg1, dilution series of the test antibody premixed with biotinylated mouse 15C4 (0.4 µg/ml); bound biotinylated 15C4 detected with streptavidin-HRP and TMB [bottom graph]
Method: as §1

[4] = molecular target: T1, human Leucine-rich alpha-2-glycoprotein …; assay: competition ELISA on coated hLrg1; competitor biotinylated mouse 15C4 at 0.4 µg/ml
[5] = molecular target: T2, Lrg1 peptide GNKLQVLGKDLLLPQ (amino acids 221-235 of Lrg1) (human); assay: ProArray Ultra peptide microarray, fluorescent secondary antibody
T2 construct: Synthetic 15-mer of the overlapping library
T2 peptide: GNKLQVLGKDLLLPQ
Method: The determination of peptide-antibody binding was performed by incubation of serum or antibody samples with a ProArray Ultra® peptide microarray, followed by incubation with a fluorescent-labelled secondary antibody.
ProArray Ultra® slides were blocked using a validated blocking buffer to reduce non-specific binding of the sera. They were then incubated with test samples, followed by incubation with a specific fluorescent-labelled secondary antibody. After several washing steps, the ProArray Ultra® arrays were dried and scanned using a high-resolution fluorescence microarray scanning system.
Overlapping peptides representing LRG1 were synthesized and printed onto ProArray Ultra® microarray slides, alongside selected murine IgG controls. Slides were incubated with murine monoclonal antibody samples 4H2, 15C4 and 3A11 to identify putative epitopes. An overlapping peptide library representing Lrg1 was synthesized from the sequence provided by the sponsor. 15-mer synthetic peptides, overlapping by 10 amino acids, were generated.

[6] = molecular target: T1, human Leucine-rich alpha-2-glycoprotein …; assay: Biacore SPR; human Lrg1 immobilised, mAb at 20-100 nM
Method: The four lead mAbs were examined using Biacore, in experiments in which human Lrg1 was immobilized on the chip, and mAbs passed across at concentrations ranging from 20-100 nM. The Table below summarises the kinetic data.

Binder	IC50 (read off the curve) [2] [µg/mL]	IC50 (read off the curve) [3] [µg/mL]	IC50 fold difference against mouse 15C4 [4] [fold]	also measured
Magacizumab (humanised 15C4 antibody comprising heavy chain variable region VH5 and kappa light chain variable region VK3) (antibody, V domains shown, also called VH5/Vk3_3B6 clone; humanised antibody) VH: QVQLVQSGAEVKKPGSSVKVSCKASGYTFSGYWMNWVRQAPGQGLEWIGQIYPGDGDTNYNGKFKGRVTITADKSTSTAYMELSSLRSEDTAVYYCARSITTVVLDYWGQGTTVTVSS VL: DIVLTQSPDSLAVSLGERATISCRASQSVSTSGYSFMHWYQQKPGQPPKLLIKYASNLESGVPARFSGSGSGTDFTLTISSLQPEDFATYYCQHSWEMPLTFGQGTKLEIK				binding result [1]: binds
chimeric 15C4 antibody (murine 15C4 variable regions with human IgG4 (S241P) heavy chain constant region and Kappa light chain constant region) (antibody, V domains shown, Human IgG4 (S241P) heavy chain constant region and human Kappa light chain constant region; Expressed transiently in HEK EBNA cells and stably in NS0 cells; also called chimeric antibody; VH0/Vk0) VH: QVQLQQSGDEVVRPGSSVKISCKASGYTFSGYWMNWVKQRPGQGLQWIGQIYPGDGDTNYNGKFKGKATLTADKSSSTAYMQLSTLTSEDSAIYFCARSITTVVLDYWGQGTTLTVSS VL: DIVLTQSPVSLAVSLGQRATISCRASQSVSTSGYSFMHWYQQKPGQPPKFLIKYASNLESGVPARFSGSGSGTDFTLNIHPVEEEDTATYYCQHSWEMPLTFGAGTKLELK	~6	~3	≤ 2	
Antibody 15C4 (mouse monoclonal antibody against human Lrg1) (antibody, V domains shown, Murine hybridoma antibody; also called mouse 15C4; mAb 15C4) VH: QVQLQQSGDEVVRPGSSVKISCKASGYTFSGYWMNWVKQRPGQGLQWIGQIYPGDGDTNYNGKFKGKATLTADKSSSTAYMQLSTLTSEDSAIYFCARSITTVVLDYWGQGTTLTVSS VL: DIVLTQSPVSLAVSLGQRATISCRASQSVSTSGYSFMHWYQQKPGQPPKFLIKYASNLESGVPARFSGSGSGTDFTLNIHPVEEEDTATYYCQHSWEMPLTFGAGTKLELK	~5	~3		binding result [5]: binds; Kd [6]: 1.27 pM
control antibody VH0/Vk1 (antibody, V domains shown) VH: QVQLQQSGDEVVRPGSSVKISCKASGYTFSGYWMNWVKQRPGQGLQWIGQIYPGDGDTNYNGKFKGKATLTADKSSSTAYMQLSTLTSEDSAIYFCARSITTVVLDYWGQGTTLTVSS VL: DIVLTQSPDSLAVSLGERATISCRASQSVSTSGYSFMHWYQQKPGQPPKFLIKYASNLESGVPARFSGSGSGTDFTLTISSLQEEDFATYYCQHSWEMPLTFGQGTKLEIK			≤ 2	
control antibody VH1/Vk0 (antibody, V domains shown) VH: QVQLVQSGDEVKKPGSSVKVSCKASGYTFSGYWMNWVKQAPGQGLQWIGQIYPGDGDTNYNGKFKGRATITADKSTSTAYMQLSTLTSEDSAIYFCARSITTVVLDYWGQGTTVTVSS VL: DIVLTQSPVSLAVSLGQRATISCRASQSVSTSGYSFMHWYQQKPGQPPKFLIKYASNLESGVPARFSGSGSGTDFTLNIHPVEEEDTATYYCQHSWEMPLTFGAGTKLELK			≤ 2	
